In patent US20050037965A1:

Biological target: human p21-activated kinase 1 (PAK1) (human) (UniProt Q13153)
Experiment: cell-based or functional assay

PAK1 inhibitory domain (PAK1-ID), HA-tagged PAK1 residues 83 to 149
inhibition of IL-1β induced expression of PGE2 in SW1353 cells (ELISA of supernatants): > 50%
inhibition of IL-1β-induced expression of MMP13 in SW1353 cells (ELISA of supernatants): 55%
inhibition of basal MMP13 expression in non-stimulated SW1353 cells (ELISA of supernatants): > 80%
